Test [1] addresses T1, hPD-L1 on the surface of CHO-K1-hPD-L1 and Raji-hPD-L1 cells (human, UniProt Q9NZQ7 19-238).
T1 construct: also called CHO-K1-PD-L1; human PD-L1 on cell surface
The test can be described thus: FACS blocking assay on CHO-K1-hPD-L1 cells; blocked ligand PD-1-mFc (1 µg/mL), PE anti-mouse IgG.

Test [2] deals with T2, Human CD47-His protein (human, UniProt Q08722 19-136). The test can be described thus: ELISA on coated human CD47-His, HRP anti-human IgG, OD450. For orientation: ELISA stands for enzyme-linked immunosorbent assay.
Test [3] has as its target T2, Human CD47-His protein. The test can be described thus: ELISA, human CD47-His coated.
Test [4] deals with PD-L1-mFc (UniProt Q9NZQ7 19-238, limits assumed). The test is described as follows: competition ELISA on coated CD80-hFc; antibody mixed with PD-L1-mFc, bound PD-L1-mFc detected with anti-mouse IgG HRP, OD450. Further details: unit not given here.
Test [5] has as its target T1, hPD-L1 on the surface of CHO-K1-hPD-L1 …. The test is described as follows: FACS on CHO-K1-hPD-L1 cells, PE anti-human IgG.
Test [6] has as its target T3, CD47 on the surface of CHO-K1-E5 cells (human, UniProt Q08722 19-323).
T3 construct: Full length CD47 expressed from pTargeT-CD47 in CHO-K1 cells; also called CD47 on cell surface; CHO-K1-hCD47
The test can be described thus: FACS on CHO-K1-hCD47 cells.

Test [7] deals with Human PD-L1-His protein (human, UniProt Q9NZQ7 19-238, limits assumed). The test can be described thus: ELISA on coated human PD-L1-His, HRP anti-human IgG, OD450.
The target in test [8] is T2, Human CD47-His protein. The test is described as follows: competition ELISA: CD47-His coated, SIRPα-biotin as competitor.
Test [9] addresses Human PD-L1-hFC protein (human, UniProt Q9NZQ7 19-238, limits assumed). The test can be described thus: competition ELISA on coated PD-L1-hFc; blocked ligand PD-1-mFc (1 µg/mL), anti-mouse IgG HRP, OD450.
Test [10] concerns the target T3, CD47 on the surface of CHO-K1-E5 cells. The test is described as follows: competition FACS on CHO-K1-hCD47 cells, SIRPα-biotin as competitor.
The target is the same in test [11]. The test is described as follows: FACS on CHO-K1-hCD47 cells, PE anti-human IgG.
Test [12] shares this target. The test is described as follows: FACS blocking assay on CHO-K1-hCD47 cells; blocked ligand SIRPα-biotin, PE-SA.
Test [13] has the same target. The test is described as follows: FACS blocking assay on CHO-K1-E5 cells; blocked ligand SIRPα-Biotin, PE streptavidin.
Test [14] concerns the target T4, CD47(19-136)-hFc (human, biotin-labelled in the Octet assay of Example 8 (sites not given)).
T4 construct: tied by name; also called CD47-hFc; CD47-hFc-Biotin
The test can be described thus: BLI (Fortebio Octet RED96), biotinylated CD47-hFc on SA sensor, antibody in solution. On the technique in general: Biolayer interferometry detects binding as a change in optical thickness at a sensor tip.

Test [15] addresses T3, CD47 on the surface of CHO-K1-E5 cells. The test is described as follows: cell based ELISA on fixed CHO-K1-E5 cells, anti-human IgG HRP, OD450.
In test [16] the target is T5, Cynomolgus CD47-His (cynomolgus, UniProt A0A2K5X523 19-139).
T5 construct: Bought protein; also called monkey CD47
The test can be described thus: ELISA on coated cynomolgus CD47-His, anti-human IgG HRP, OD450.

In test [17] the target is T2, Human CD47-His protein. The test is described as follows: ELISA on coated human CD47-His, anti-human IgG HRP, OD450.
Test [18] deals with T2, Human CD47-His protein. The test can be described thus: ELISA of hybridoma supernatant, binding activity to CD47.

Changes are numbered by the printed parent chain.

T4 sequence (chain, as listed by the source limits assumed): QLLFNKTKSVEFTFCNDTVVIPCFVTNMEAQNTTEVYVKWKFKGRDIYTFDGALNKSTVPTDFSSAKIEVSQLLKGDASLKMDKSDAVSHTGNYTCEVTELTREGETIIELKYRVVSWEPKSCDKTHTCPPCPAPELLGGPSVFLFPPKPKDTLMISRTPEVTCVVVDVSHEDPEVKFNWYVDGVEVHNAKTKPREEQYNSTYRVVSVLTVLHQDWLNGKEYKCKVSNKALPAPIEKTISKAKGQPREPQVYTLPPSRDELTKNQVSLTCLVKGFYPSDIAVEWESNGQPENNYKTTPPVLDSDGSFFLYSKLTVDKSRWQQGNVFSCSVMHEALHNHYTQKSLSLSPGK
T1 sequence (Q9NZQ7 19-238): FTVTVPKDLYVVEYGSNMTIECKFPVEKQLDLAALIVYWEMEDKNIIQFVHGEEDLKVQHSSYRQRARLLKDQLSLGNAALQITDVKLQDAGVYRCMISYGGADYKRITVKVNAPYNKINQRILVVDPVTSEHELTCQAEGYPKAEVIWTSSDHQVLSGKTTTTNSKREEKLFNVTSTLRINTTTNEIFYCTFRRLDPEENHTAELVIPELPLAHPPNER
Chain of Human PD-L1-hFC protein (Q9NZQ7 19-238 limits assumed): as the sequence (Q9NZQ7 19-238) above
Chain of PD-L1-mFc (Q9NZQ7 19-238 limits assumed): as the sequence (Q9NZQ7 19-238) above
Chain of Human PD-L1-His protein (Q9NZQ7 19-238 limits assumed): as the sequence (Q9NZQ7 19-238) above

B1: ScFab (HuPL7-21Ks/Hu34-39Hs) (bispecific antibody)
chain 1: not shown
chain 2: EIVLTQSPGTLSLSPGERATLSCRASSSVSSSYLNWYQQKSGASPKLWIYSTSNLASGVPGRFSGSGSGTSYSLTISSVEAEDAATYYCQQYSGYPLTFGAGTKLEVKRTVAAPSVFIFPPSDEQLKSGTASVVCLLNNFYPREAKVQWKVDNALQSGNSQESVTEQDSKDSTYSLSSTLTLSKADYEKHKVYACEVTHQGLSSPVTKSFNRGECGGGGSGGGGSGGGGSGGGGSGGGGSGGGGSQVQLQESGPGLVKPSQTLSLTCKASGYTFTNYWITWVKQRPGQGLEWIGDITPGRGETNYNQKFKGRVTLTVDISASTAYMELSSLRSEDTAVYYCSRWGLRRGDYWGQGTSVTVSSASTKGPSVFPLAPCSRSTSESTAALGCLVKDYFPEPVTVSWNSGALTSGVHTFPAVLQSSGLYSLSSVVTVPSSSLGTKTYTCNVDHKPSNTKVDKRVESKYGPPCPPCPAPEFEGGPSVFLFPPKPKDTLMISRTPEVTCVVVDVSQEDPEVQFNWYVDGVEVHNAKTKPREEQFNSTYRVVSVLTVLHQDWLNGKEYKCKVSNKGLPSSIEKTISKAKGQPREPQVCTLPPSQEEMTKNQVSLSCAVKGFYPSDIAVEWESNGQPENNYKTTPPVLDSDGSFFLVSRLTVDKSRWQEGNVFSCSVMHEALHNHYTQKSLSLSLGK
notes: also called BiAb; Bi Ab
A word on the EC50 (read off the curve): it is the concentration that produces a half-maximal response. Consider B1, for which the “IC50 (read off the curve)” value in test [1] is about 3 nM; in test [4], about 10; in test [9], about 1000 nM; in test [12], about 8 nM. For the same molecule, the “EC50 (read off the curve)” value in [2] was about 2000 nM; in [5], about 2 nM; in test [7] it was about 200 nM; in test [11], about 10 nM. Besides, the “fold increase of binding EC50 against Hu34-39-PE” value in test [3] came to 40 fold. Besides, in test [6], the “fold decrease of Emax against Hu34-39-PE” value is about 2 times. Moreover, the “fold increase of EC50 against Hu34-39-PE” value in [6] was about 4 times. In addition, the entries for the “fold increase of IC50 against Hu34-39-PE” value in [8] and in [10] were about 40 times and 3 times, respectively.

B2: ScFab (HuPL16-42Ks/Hu34-39Hs) (bispecific antibody)
chain 1: not shown
chain 2: B1 chain 2
Regarding B2, the “IC50 (read off the curve)” value in test [1] and in [12] was about 5 nM throughout. In addition, the “EC50 (read off the curve)” value in test [2] is about 2000 nM; in test [5], about 2 nM; in test [11] it was about 10 nM. Moreover, in [3], the “fold increase of binding EC50 against Hu34-39-PE” value was about 40 times. For the same molecule, the “fold decrease of Emax against Hu34-39-PE” value in test [6] was about 2 times. For the same molecule, the “fold increase of EC50 against Hu34-39-PE” value in test [6] is about 4 times. Also, the “fold increase of IC50 against Hu34-39-PE” value in [8] was about 40 times; in [10], 3 times.

B3: Hu58A-14-PE (antibody, IgG4, V domains shown)
VH: EVQLLESGGGLVQPGGSLRLSCAASGFIFSRFGMAWVRQTPDKRLEWVATISSGGSYTYYPDSVKGRLTISRDNAKTTLYLQMRSLKSEDTAMYYCARQGLLDYLYALDYWGQGTAVTVSS
VL: DIQMTQSPSSVSASIGDRVTITCKASQDINSFLAWFQQKPGKSPRPLIYRAYRLVDGVPSRFSGVGSGQDYSLTISSLDYEDLGIYYCQQYVEFPPTFGAGTMLELK
notes: also called humanized anti-CD47 antibody Hu58A-14-PE
Broadly, the Kd is a measure of binding affinity in units of concentration. For orientation: koff means the rate constant with which the complex falls apart. What is called kon is the rate constant with which the complex forms. B3: in [13], the “IC50 (read off the curve)” value is about 5 nM. Moreover, in test [14], the Kd turned out to be 0.0946 nM, the off-rate constant (koff) was 0.000168 s⁻¹ and the kon was found to be 1.78e+06 M⁻¹ s⁻¹. Besides, in test [15], the “EC50 (read off the curve)” value was about 0.1 nM. The “EC50 (read off the curve)” value in [16] is about 0.1 nM. In test [17], the “EC50 (read off the curve)” value is about 0.08 nM.

B4: SHC025-58 (antibody, IgG2b, V domains shown)
VH: B3 VH with L5V, G10D, Q13E, R19K
VL: B3 VL with Q3K, T5I, V11M, S12Y, S14G, I15L, D17E, I21F, T22N, A34C
notes: tested as culture supernatant
B4: in test [18], the binding result is given as “binds”.

B5: SHC025-34 (antibody, IgG2c, V domains shown)
VH: QVQLQQPGAELVKPGASVKMSCKASGYTFTNYWITWVKQRPGQGLEWIGDITPGRGETNYNEKFKSKATLTVDTSSSTAYMQLTSLTSEDSAVYYCSRWGLRRGDYWGQGTSVTVSS
VL: ENVLTQSPAIMSASPGEKVTMTCRASSSVSSSYLNWYQQKSGASPKLWIYSTSNLASGVPGRFSGSGSGTSYSLTISSVEAEDAATYYCQQYSGYPLTFGAGTKLEVK
notes: tested as culture supernatant
On to B5, for which the binding result in test [18] was “binds”.

B6: Hu26T-31-PE (antibody, IgG4, V domains shown)
VH: QVQLVQSGAEVKKPGASVKVSCKASGYTFTDYYMNWVRQAPGQGLEWIGRIYPGSGLTYYNAKFKGRATVTADKSTSTVYMELSSLRSEDTAVYYCARTSYGSSFPHVWGQGTTVTVSS
VL: DIQMTQSPSSLSASVGDRVTITCKSSQSLLNVNDQKNYLAWYQQKPGKAPKLLIYFASTRESGVPSRFSGSGSGTDFTLTISSLQPEDFATYYCQQHYSTPLTFGQGTKLEIK
notes: also called humanized anti-CD47 antibody Hu26T-31-PE
As for B6, the “IC50 (read off the curve)” value in test [13] is about 1 nM. Besides, in [14], binding was put at a Kd of 0.0587 nM, the koff turned out to be 6.13e-05 s⁻¹ and the kon came to 1.04e+06 M⁻¹ s⁻¹. For the same molecule, the “EC50 (read off the curve)” value in test [15] was about 0.1 nM. The “EC50 (read off the curve)” value in test [16] was about 0.1 nM. In addition, in test [17], the “EC50 (read off the curve)” value is about 0.1 nM.

B7: SHC025-26 (antibody, IgG1, V domains shown)
VH: QVQLKQSGAELVRPGASVKLSCKASGYIFTDYYMNWVKQRPGQGLEWIARIYPGSGLTYYNAKFKGKATVTAEKSSSTAYMQLSSLTSEDSAVYFCARCSYGSSFPHVWGTGTTVTVSS
VL: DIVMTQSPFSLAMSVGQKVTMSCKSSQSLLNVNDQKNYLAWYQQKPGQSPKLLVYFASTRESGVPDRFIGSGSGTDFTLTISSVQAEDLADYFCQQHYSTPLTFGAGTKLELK
notes: tested as culture supernatant
For the molecule B7, the binding result in test [18] is listed as “binds”.

B8: AB6.12-IgG4P (antibody, V domains shown)
VH: QMQLVQSGAEVKKTGSSVKVSCKASGFNIKDYYLHWVRQAPGQALEWMGWIDPDQGDTEYAQKFQDRVTITRDRSMSTAYMELSSLRSEDTAMYYCNAAYGSSSYPMDYWGQGTTVTVSS
VL: NIQMTQSPSAMSASVGDRVTITCKASQDIHRYLSWFQQKPGKVPKHLIYRANRLVSGVPSRFSGSGSGTEFTLTISSLQPEDFATYYCLQYDEFPYTFGGGTKVEIKR
notes: Anti-CD47 control antibody from WO2013/119714; also called AB06.12-4P; AB06.12-P
With B8, the “IC50 (read off the curve)” value in test [13] is about 1 nM. Also, in [14], the equilibrium dissociation constant (Kd) was 0.101 nM, the dissociation rate constant (koff) was 0.000485 s⁻¹ and the association rate constant (kon) turned out to be 4.8e+06 M⁻¹ s⁻¹. Further, the “EC50 (read off the curve)” value in test [15] was about 0.1 nM. Further, the “EC50 (read off the curve)” value in test [16] is about 0.1 nM. The “EC50 (read off the curve)” value in test [17] was about 0.08 nM.

For the origin of these results see patent publication US20230090014A1 (NANJING SANHOME PHARMACEUTICAL, published 2023).
